# Results from US20250312499A1, “KISSPEPTIN RECEPTOR (KISS1R) TARGETED THERAPEUTICS AND USES THEREOF” (priority 2024, published 2025).
# Numbered stars: 1 amine (or outer) side, 2 acyl side, 3 side chain; on linkers, the order of the positions; unused ones are H or OH. Square brackets hold non-standard residues; d marks the D form. Ends that are not written are not given here. * marks the point of attachment. X2 = 4‑amino‑1‑((3-fluoro-4-methylbenzyl)glycyl)piperidine‑4‑carboxylic acid, Cc1ccc(CN(CC(=O)N2CCC(N[*:1])(C(=O)[*:2])CC2)[*:3])cc1F; X6 = 3‑(2-(2-(3-(p-tolyl)propanamido)ethoxy)ethoxy)propanoyl, Cc1ccc(CCC(=O)NCCOCCOCCC(=O)*)cc1; DOTA = O=C(O)CN1CCN(CC(=O)O)CCN(CC(=O)*)CCN(CC(=O)O)CC1; Api(1-amidino) = N=C(N)N1CCC(N)(C(=O)O)CC1; HO(CH2CH2O)2CH2CH2CO = O=C(CCOCCOCCO)*; d2Nal = N[C@H](Cc1ccc2ccccc2c1)C(=O)O; d4Pal = N[C@H](Cc1ccncc1)C(=O)O; Cha = N[C@@H](CC1CCCCC1)C(=O)O; Octanoyl = CCCCCCCC(=O)*; Ahx = NCCCCCC(=O)O; azaGly = NNC(=O)O; Sar = CNCC(=O)O
# B1: Compound 360 (peptide)
# peptide: [N‑(3-fluoro-4-methylbenzyl)glycine][dY]K(DOTA)NTF[azaGly]L[4‑amino‑1‑carbamimidoylpiperidine‑4‑carboxylic acid(Sarcosine)][dW]-NH2
# B2: Compound 381 (peptide)
# peptide: Octanoyl-[dY]K(DOTA)NTF[azaGly]L[X2]W-NH2
# SMILES: CCCCCCCC(=O)N[C@H](Cc1ccc(O)cc1)C(=O)N[C@@H](CCCCNC(=O)CN1CCN(CC(=O)O)CCN(CC(=O)O)CCN(CC(=O)O)CC1)C(=O)N[C@@H](CC(N)=O)C(=O)N[C@H](C(=O)N[C@@H](Cc1ccccc1)C(=O)NNC(=O)N[C@@H](CC(C)C)C(=O)NC1(C(=O)N[C@@H](Cc2c[nH]c3ccccc23)C(N)=O)CCN(C(=O)CNCc2ccc(C)c(F)c2)CC1)[C@@H](C)O
# B3: Compound 353 (peptide)
# peptide: Octanoyl-[dY][dK](DOTA)NTF[azaGly]L[4‑amino‑1‑carbamimidoylpiperidine‑4‑carboxylic acid(Sarcosine)][dW]-NH2
# B4: Compound 17 (peptide)
# peptide: {DOTA}-[Sar][Sar]F[azaGly]L[X2]W-NH2
# SMILES: Cc1ccc(CNCC(=O)N2CCC(NC(=O)[C@H](CC(C)C)NC(=O)NNC(=O)[C@H](Cc3ccccc3)NC(=O)CN(C)C(=O)CN(C)C(=O)CN3CCN(CC(=O)O)CCN(CC(=O)O)CCN(CC(=O)O)CC3)(C(=O)N[C@@H](Cc3c[nH]c4ccccc34)C(N)=O)CC2)cc1F
# B5: Compound 365 (peptide)
# peptide: {DOTA}-G[dY][d2Nal]NTF[azaGly]L[X2]W-NH2
# SMILES: Cc1ccc(CNCC(=O)N2CCC(NC(=O)[C@H](CC(C)C)NC(=O)NNC(=O)[C@H](Cc3ccccc3)NC(=O)[C@@H](NC(=O)[C@H](CC(N)=O)NC(=O)[C@@H](Cc3ccc4ccccc4c3)NC(=O)[C@@H](Cc3ccc(O)cc3)NC(=O)CNC(=O)CN3CCN(CC(=O)O)CCN(CC(=O)O)CCN(CC(=O)O)CC3)[C@@H](C)O)(C(=O)N[C@@H](Cc3c[nH]c4ccccc34)C(N)=O)CC2)cc1F
# B6: Compound 358 (peptide)
# peptide: X6-[dY][dK](DOTA)NT[Cha][azaGly]L[4‑amino‑1‑carbamimidoylpiperidine‑4‑carboxylic acid(Sarcosine)][dW]-NH2
# B7: Compound 368 (peptide)
# peptide: {DOTA-NH‑PEG2‑propanoyl}-[dY][d4Pal]NTF[azaGly]L[X2]W-NH2
# B8: Compound 359 (peptide)
# peptide: {1‑(3-fluoro-4-methylphenyl)‑4‑oxo‑8,11‑dioxa‑2,5‑diazatetradecan‑14‑oyl}-[dY]K(DOTA)NTF[azaGly]L[4‑amino‑1‑carbamimidoylpiperidine‑4‑carboxylic acid(Sarcosine)][dW]-NH2
# B9: Compound 380 (peptide)
# peptide: Ac-[dY]K(DOTA)NTF[azaGly]L[X2]W-NH2
# SMILES: CC(=O)N[C@H](Cc1ccc(O)cc1)C(=O)N[C@@H](CCCCNC(=O)CN1CCN(CC(=O)O)CCN(CC(=O)O)CCN(CC(=O)O)CC1)C(=O)N[C@@H](CC(N)=O)C(=O)N[C@H](C(=O)N[C@@H](Cc1ccccc1)C(=O)NNC(=O)N[C@@H](CC(C)C)C(=O)NC1(C(=O)N[C@@H](Cc2c[nH]c3ccccc23)C(N)=O)CCN(C(=O)CNCc2ccc(C)c(F)c2)CC1)[C@@H](C)O
# B10: Compound 379 (peptide)
# peptide: {HO(CH2CH2O)2CH2CH2CO}-[dY]K(DOTA)NTF[azaGly]L[X2]W-NH2
# SMILES: Cc1ccc(CNCC(=O)N2CCC(NC(=O)[C@H](CC(C)C)NC(=O)NNC(=O)[C@H](Cc3ccccc3)NC(=O)[C@@H](NC(=O)[C@H](CC(N)=O)NC(=O)[C@H](CCCCNC(=O)CN3CCN(CC(=O)O)CCN(CC(=O)O)CCN(CC(=O)O)CC3)NC(=O)[C@@H](Cc3ccc(O)cc3)NC(=O)CCOCCOCCO)[C@@H](C)O)(C(=O)N[C@@H](Cc3c[nH]c4ccccc34)C(N)=O)CC2)cc1F
# B11: Compound 338 (peptide)
# peptide: X6-[dY][dK](DOTA)NTF[azaGly]L[Api(1-amidino)]W-NH2
# SMILES: Cc1ccc(CCC(=O)NCCOCCOCCC(=O)N[C@H](Cc2ccc(O)cc2)C(=O)N[C@H](CCCCNC(=O)CN2CCN(CC(=O)O)CCN(CC(=O)O)CCN(CC(=O)O)CC2)C(=O)N[C@@H](CC(N)=O)C(=O)N[C@H](C(=O)N[C@@H](Cc2ccccc2)C(=O)NNC(=O)N[C@@H](CC(C)C)C(=O)NC2(C(=O)N[C@@H](Cc3c[nH]c4ccccc34)C(N)=O)CCN(C(=N)N)CC2)[C@@H](C)O)cc1
# B12: Compound 366 (peptide)
# peptide: {DOTA-Ahx}-[dY][dW]NTF[azaGly]L[X2]Y-NH2
# SMILES: Cc1ccc(CNCC(=O)N2CCC(NC(=O)[C@H](CC(C)C)NC(=O)NNC(=O)[C@H](Cc3ccccc3)NC(=O)[C@@H](NC(=O)[C@H](CC(N)=O)NC(=O)[C@@H](Cc3c[nH]c4ccccc34)NC(=O)[C@@H](Cc3ccc(O)cc3)NC(=O)CCCCCNC(=O)CN3CCN(CC(=O)O)CCN(CC(=O)O)CCN(CC(=O)O)CC3)[C@@H](C)O)(C(=O)N[C@@H](Cc3ccc(O)cc3)C(N)=O)CC2)cc1F
# B13: Compound 354 (peptide)
# peptide: Octanoyl-[dY][dK](DOTA)NTF[azaGly]L[4‑amino‑1‑carbamimidoylpiperidine‑4‑carboxylic acid(Sarcosine)]W-NH2
# B14: Compound 356 (peptide)
# peptide: X6-[dY]K(DOTA)NT[Cha][azaGly]L[4‑amino‑1‑carbamimidoylpiperidine‑4‑carboxylic acid(Sarcosine)][dW]-NH2
# B15: Compound 382 (peptide)
# peptide: {DOTA-NH‑PEG2‑propanoyl}-[dY][dW]NTF[azaGly]L[X2]W-NH2
# B16: Compound 357 (peptide)
# peptide: X6-[dY]K(DOTA)NT[Cha][azaGly]L[4‑amino‑1‑carbamimidoylpiperidine‑4‑carboxylic acid(Sarcosine)]W-NH2
# B17: Compound 355 (peptide)
# peptide: Octanoyl-[dY][dK](DOTA)NT[Cha][azaGly]L[4‑amino‑1‑carbamimidoylpiperidine‑4‑carboxylic acid(Sarcosine)][dW]-NH2
# B18: Compound 383 (peptide)
# peptide: {DOTA-Ahx}-[dY][dW]NTF[azaGly]L[X2][dW]-NH2
# SMILES: Cc1ccc(CNCC(=O)N2CCC(NC(=O)[C@H](CC(C)C)NC(=O)NNC(=O)[C@H](Cc3ccccc3)NC(=O)[C@@H](NC(=O)[C@H](CC(N)=O)NC(=O)[C@@H](Cc3c[nH]c4ccccc34)NC(=O)[C@@H](Cc3ccc(O)cc3)NC(=O)CCCCCNC(=O)CN3CCN(CC(=O)O)CCN(CC(=O)O)CCN(CC(=O)O)CC3)[C@@H](C)O)(C(=O)N[C@H](Cc3c[nH]c4ccccc34)C(N)=O)CC2)cc1F
# Target: human kisspeptin receptor (KISS1R) (human), Q969F8
# Sequence (Q969F8 whole entry): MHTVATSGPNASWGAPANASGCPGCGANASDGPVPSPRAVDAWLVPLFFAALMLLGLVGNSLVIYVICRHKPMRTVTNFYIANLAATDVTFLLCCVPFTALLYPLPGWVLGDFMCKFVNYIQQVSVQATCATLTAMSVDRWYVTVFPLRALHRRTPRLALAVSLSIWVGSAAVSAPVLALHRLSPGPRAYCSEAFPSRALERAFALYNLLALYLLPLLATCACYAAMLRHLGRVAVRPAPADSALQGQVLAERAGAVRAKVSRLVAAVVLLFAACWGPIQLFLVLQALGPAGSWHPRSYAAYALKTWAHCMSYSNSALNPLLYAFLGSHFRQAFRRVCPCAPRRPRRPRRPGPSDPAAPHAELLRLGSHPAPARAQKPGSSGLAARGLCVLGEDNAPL
# Test: radioligand competition, hKISS1R membranes; legend: A is <10 nM
row,Binder,Ki
1,B1,< 10 nM
2,B2,< 10 nM
3,B3,< 10 nM
4,B4,< 10 nM
5,B5,< 10 nM
6,B6,< 10 nM
7,B7,< 10 nM
8,B8,< 10 nM
9,B9,< 10 nM
10,B10,< 10 nM
11,B11,< 10 nM
12,B12,< 10 nM
13,B13,< 10 nM
14,B14,< 10 nM
15,B15,< 10 nM
16,B16,< 10 nM
17,B17,< 10 nM
18,B18,< 10 nM
